We go through 22 molecules from publication PMC6173196 (Journal of immunology (Baltimore, Md. : 1950), 2018).

As usually defined, the Kd is a measure of binding affinity in units of concentration.

B1: biotinylated JES6–1 antibody mutant S34A (VL) (antibody, V domains shown)
VH: EIQLQQSGPELRRPGSSVKLSCKASGYNITDYLIHWVRHRPEHGLEWIGWIDPEDGETRYAQKFQSKATLTADTSSNAAYMQLSSLTPEDTATYFCARSLDSTYIYPFAYWGQGTLVTVSS
VL: DIVMTQSPFSLAVSEGEMVTINCKSSQSLLASGNQKNYLAWYQQKPGQSPKLLIYYASTGQSGVPDRFIGSGSGTDFTLTISDVQAEDLADYYCLQHYISPPTFGAGTKLELK
B2: biotinylated JES6–1 antibody mutant R62A (VH) (antibody, V domains shown)
VH: B1 VH with R59A
VL: B1 VL with A31S
B3: biotinylated JES6–1 antibody mutant Y41A (VL) (antibody, V domains shown)
VH: B1 VH
VL: B1 VL with A31S, Y38A
B4: biotinylated JES6–1 antibody mutant D55A (VH) (antibody, V domains shown)
VH: B1 VH with D52A
VL: B1 VL with A31S
B5: biotinylated JES6–1 antibody mutant Y101A (VL) (antibody, V domains shown)
VH: B1 VH
VL: B1 VL with A31S, Y98A
B6: biotinylated JES6–1 antibody mutant H100A (VL) (antibody, V domains shown)
VH: B1 VH
VL: B1 VL with A31S, H97A
B7: biotinylated JES6–1 antibody mutant D58A (VH) (antibody, V domains shown)
VH: B1 VH with D55A
VL: B1 VL with A31S
B8: biotinylated JES6–1 antibody mutant E60A (VH) (antibody, V domains shown)
VH: B1 VH with E57A
VL: B1 VL with A31S

Changes are numbered by the printed parent chain. Names may count otherwise.

Chain of IL-2 receptor βγ (Homo sapiens) (P14784 27-240, chain 1 of 2): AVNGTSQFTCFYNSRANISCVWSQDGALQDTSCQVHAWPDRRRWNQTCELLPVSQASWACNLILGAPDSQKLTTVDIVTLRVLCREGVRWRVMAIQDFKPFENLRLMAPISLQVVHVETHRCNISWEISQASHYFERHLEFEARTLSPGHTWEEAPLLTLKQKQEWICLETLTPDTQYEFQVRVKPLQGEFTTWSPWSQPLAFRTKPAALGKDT
Chain of IL-2 receptor βγ (Homo sapiens) (P31785 23-262, chain 2 of 2, further chain): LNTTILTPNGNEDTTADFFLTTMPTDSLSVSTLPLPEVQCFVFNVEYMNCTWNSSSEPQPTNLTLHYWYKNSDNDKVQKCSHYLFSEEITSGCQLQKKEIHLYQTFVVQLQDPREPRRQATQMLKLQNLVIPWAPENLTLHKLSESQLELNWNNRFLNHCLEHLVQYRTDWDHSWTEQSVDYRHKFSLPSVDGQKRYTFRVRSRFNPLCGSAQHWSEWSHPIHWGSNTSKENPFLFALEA

The target in one test is biotinylated mouse IL-2Rα (mIL-2Rα ectodomain with C-terminal biotin acceptor peptide) (mouse). Briefly: SPR.
Conditions: not given
“JES6–1 immunocytokine mutant Y101A (VL) (from UniProt P04351 21-169)”: the dissociation constant Kd is 140 nM. Molecule “JES6–1 immunocytokine (IL-2 tethered to the N-terminus of the JES6–1 antibody light chain) (from UniProt P04351 21-169)” displayed an equilibrium dissociation constant (Kd) of 290 nM.

“JES6–1 immunocytokine mutant S34A (VL) (from UniProt P04351 21-169)” yielded a dissociation constant Kd of 170 nM. Still for that read-out and setting: next, “JES6–1 immunocytokine mutant Y41A (VL) (from UniProt P04351 21-169)”: 130 nM. In turn, “JES6–1 immunocytokine mutant D55A (VH) (from UniProt P04351 21-169)” gave an equilibrium dissociation constant (Kd) of 230 nM. With “JES6–1 immunocytokine mutant E60A (VH) (from UniProt P04351 21-169)”, the Kd came out at 210 nM. Same read-out and setting: next, “JES6–1 immunocytokine mutant H100A (VL) (from UniProt P04351 21-169)”: 240 nM; “JES6–1 immunocytokine mutant D58A (VH) (from UniProt P04351 21-169)”: 260 nM.

The molecule “JES6–1 immunocytokine mutant R62A (VH) (from UniProt P04351 21-169)” returned a Kd of 190 nM.

A further test concerns the target IL-2 receptor βγ (Homo sapiens) (UniProt P14784).
Assay: not given
The following applies: cited from earlier work.
Regarding IL-2 (from UniProt P60568), the Kd is 1 nM.

For another test, the target named is biotinylated mouse IL-2Rα (mIL-2Rα ectodomain with C-terminal biotin acceptor peptide) (mouse). The experiment in a line: SPR.
Conditions: not given
The source holds these as a separate data set.
For “JES6–1 immunocytokine (IL-2 tethered to the N-terminus of the JES6–1 antibody light chain) (from UniProt P04351 21-169)”, the dissociation constant (Kd) turned out to be 220 nM. The molecule “JES6–1 immunocytokine triple mutant S34A+Y41A+Y101A (VL) (from UniProt P04351 21-169)” registered a Kd of 130 nM.

“JY3 immunocytokine (JES6–1 immunocytokine double mutant Y41A+Y101A, VL) (from UniProt P04351 21-169)” had an equilibrium dissociation constant (Kd) of 82 nM. The same measure, in the same setting: next, “JES6–1 immunocytokine double mutant S34A+Y101A (VL) (from UniProt P04351 21-169)”: 82 nM; “JES6–1 immunocytokine double mutant S34A+Y41A (VL) (from UniProt P04351 21-169)”: 210 nM.

The target of a further test is mouse IL-2 (mIL-2, amino acids 1–149), hexahistidine-tagged (Mus musculus, UniProt P04351). Briefly: SPR.
Chain of mouse IL-2 (mIL-2, amino acids 1–149), hexahistidine-tagged (P04351 21-169): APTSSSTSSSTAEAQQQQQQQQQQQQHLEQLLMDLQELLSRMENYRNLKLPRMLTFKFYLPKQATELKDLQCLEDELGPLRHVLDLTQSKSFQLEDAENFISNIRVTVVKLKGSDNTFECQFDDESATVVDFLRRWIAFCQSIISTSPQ
Conditions: not given
For the molecule B1, binding was characterised by a dissociation constant (Kd) of 6.5 nM. In turn, B2 showed a Kd of 4.3 nM. Consider B3, for which the Kd turned out to be 6.4 nM.

B4 gave a Kd of 500 nM. Still for that read-out and setting: next, B5: 12 nM; B6: 62 nM. On the same count and under the same terms, next, B7: 200 nM; B8: 56 nM.
